Variants at the floor of the assay were thinned out.
B1: TPR 5TU (parent)
chain: GGAUCUUCUCGAUCUAACAAAAAAGACAAAUCUGCCACAAAGCUUGAGAGCAUCUUCGGAUGCAGAGGCGGCAGCCUUCGGUGGCGCGAUAGCGCCAACGUUCUCAACUAUGACACGCAAAACGCGUGCUCCGUUGAAUGGAGUUUAUCAUG

Variants of: B1
Assay: polymerase ribozyme fitness, log enrichment relative to wild type (log ratio); higher = more active; in vitro selection for triplet polymerase activity
How it was run: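 Both subunits of a heterodimeric triplet polymerase ribozyme were given their own mutant library, built by PCR and transcribed. Each library was annealed with a biotinylated primer, the partner subunit and triplets, incubated frozen at −7 °C, and its extended constructs gel-excised, captured on streptavidin beads and amplified by RT-PCR, all in one round done in triplicate. Fitness is the logarithm of genotype enrichment relative to wild-type enrichment, with replicates averaged by inverse-variance weighting. That logarithm is base 2, and Illumina-sequenced genotypes needed ≥10 input reads and ≥1 read per output.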

Polymerase ribozyme fitness (log ratio), ≤ -4.2:
GGAUCUUCUGGAUCUAACAAAAAAGACAUAUCUGCCACAAAGCUUGAGAGCAUCUUCGGAUGCAGAGGCGGCAGCCUUCGGUGGCGCGAUAGCGUCAACGUUCUCAAAUAUGACACACAAAACGCGUGCUCCGUUGAAUGGACUUUAUCAUG [C10G A29U C95U C108A G117A G143C]
GGAUCUUCUGGAUCUAACAAAAAAGACAAAUCUGCCACAAAGCUUGUGAGCAUAUUCGGAUGCAGAGGCGGUAGCCUUCGAUGGCGCGAUACCGCCAACGUUCUCAACUAUGACACGCAAAACGCGUGCUCCUUGGAAUGGAGUUUAUCAUG [C10G A47U C54A C72U G81A G92C G133U U135G]
GGAUCUUCUGGAUCUACCAAAAAAGACAAAUCUGCUACAAAGCUUGAAAGCAUCUUCGGAUGCUGAGGCGGCAGCCUUCGGUGGCGCCAUAGCGCCAACGUUCUCAACUAUGACACGGAAAACGCGUGCUCCGUUGAAUGGAGUUUAUCAUG [C10G A17C C36U G48A A64U G88C C118G]
GGAUCUUCUGGGUCUAACAAAAAAGACAAAUCUGCCACAAAGCUUGAGAGCAUCUUCGGAUGCAGAGGCGGCAGCCUUCGGUGGCGCGAUAGCGCCAACGUUCUCAACUAUGACACGCAUAACGCGUGCUCCGUCGAAUGGAGUUUAUCAUG [C10G A12G A120U U135C]
GGAUCUUCUGGAUCUAUCAAAAAAGACAAAUCUGCCCCAAAGCUUGAGAGCAUCUUCGCAUGCAGAGGCGGCAGCCUUCGGUGGAGCGAUAGCGCCAACGUUCUCAACUAUGACACGCAAAACGCGUGCUCCGUUGAAUGGAGUUUAUCAUG [C10G A17U A37C G59C C85A]
GGAUCUUCUGGAUCUAACAAAGAAGACAAAUCUGCCACUAAGCUUGAGAGCAUCUUCGGAUGCAGAGGCGGCAGCCUUCGGUGGCGCGAUAGCGCCAACGUUCUCAACCAUGACACGCAAAACGCGUGCUCCGUUGAAUGGAGUUUAUCAUG [C10G A22G A39U U109C]
GGAUCUUCUAGACCUAACAAAAAAGACAACUCUGCCACAAAGCUUGAGAGCAUCUUCGGAUGCAGAGGCGGCAGCCUUCGGUAGCGCAAUAGCGCCAUCGUUCUCAACUAUGACACGCAAAACGAGUGCUCCGUUGAAUGGAGUUUGUCAUG [C10A U13C A30C G83A G88A A98U C125A A147G]
GGAUCUUCUAGAUCUAACAAAAAAGACAAAUCGGCCACAAAGCUUGAGAGCAUCUUCGGGUGCAGAGGCGGCAGACUUCGGUGGCGCGAUAGCGCCAACGUUCUCUACUAUGACACUCAAAACGCGUGCUCCGUUGCAUGGAGAUUAUCAUG [C10A U33G A60G C75A A106U G117U A137C U144A]
GGAUCUUCUGGAUCUAACAGAAAAGACAAAUCUGCCACAAAGCUUGAGAGCAUCUUCGGAUGCAGAGGCGGCAGCCUUCGGUGGCGCGAUAGCGCCAACGUUCUCAACUAUGACACGCAAAACGCGUGCUCCGUUGAGUGGAGAAUAUCAUG [C10G A20G A138G U144A U145A]
GGAUCUUCUAGAUCUAACAAAAAAGACAAAUCAGCCACAAAGCUUGAGAGCAUCUUCGGAUGCAGAGGCGGCAGCCUGCGGUGGCGCGAAAGCGCCAACGUUCUCAACUAUGACACGCAAAACGCGUGCUCCGUUGAAUAGAGUUUAUCAUG [C10A U33A U78G U90A G140A]
GGAUCUUCUAGAUCUAACAAAAAAGACAAAUCUGCCACAAAGCUUGAGAGCAUCUGGGAAUGCAGAGGCGGCAGCCUUUGGUCGCGCGAUAGCGCCAAGGUUCUCAACUAUGACACGCAAAACGCGUGCUCCGUUGAAUGGAGUUUAUCAUG [C10A U56G C57G G59A C79U G83C C99G]
GGAUCUUCUAGAUCUAACAAAAAAGACAAAUCUGCCACAAAGCUUGAGAGCAUCUUCGGAUGCAGACGCGGCAGCCUUCGGUGGCGCGAUAGGGCCAAGGUUCUCAACUAUGACACGCAAAACGCGUGCUCCGUUGUAUGGAGUUAAUCAUG [C10A G67C C93G C99G A137U U146A]
GGAUCUUCUGGAUCUAACGAAAAAGACAAAUCUACCACAAAGCUUGAGAGCCUGUUCGGAUGCAGAGGCGGCAGCCUUCGGUGGCGCGAUAGCGCCAACGUUCUCAACUAUGACACGCAAAACGCGUGCUCCGUUGAAUGGAGUUUAUCAUG [C10G A19G G34A A52C C54G]
GGAUCUUCUGGAUCUAACAUAAAAGACAAAUCUGCCACAAAGCUUGAGAGCCUCUUCGGAUGCAGAGGCGGCAGCCUUCGGUGGCACGAUAUCGCCAACGUUCUCAACUAUGACUCGCAAAACGCGUGCUCCGUUGAAUGGAGUUUAUCAUA [C10G A20U A52C G86A G92U A115U G152A]
GGAUCUUCUGGAUCUUACAAAAAAGACAAAUCUGCCACAAAGCUUGAGCGGUUCUACGGAUGCAGAGGCGGCAGCCUUCGGUGGCGCGAUAGCGCCAACGUUGUCAACUAUGACACGCAAAACGCGUGCUCCGUUGAAUGGAGUUAAUCAUG [C10G A16U A49C C51G A52U U56A C103G U146A]
GGAUCUUCUGGAUCUAACAAAAAAGACUAAUCUGCCACAAAGCUUGAGAGCAUUUUCGGAUGCAGAGGCGGCAGCCUUCGGUGGGGCGAUAGCGCCAACGUUCUCAACUAUGACAUGCAAAACGCGUGCUCCGUUGAAUGGAGUUUAUCAUG [C10G A28U C54U C85G C116U]
GGAUCUUCUGGAUCUAACAAAAAAGACGAAUCUGCCACAAAGCUUGAGAGCAUCUUCGGAUGCAGAGGCGGCAGCCUUCGGGGGCGCGAUAGCCACAACGUUCUCAACUAUGACACGCAAAACGCGUGCUCCGUUGAAUAGAGUUUAUCAUG [C10G A28G U82G G94C C95A G140A]
GGAUCUUCUAGAUCUAACAAAAAAGACAAAUCUGCCACAAAGCUUGAGAGCAUCUUCGGAUGCAGAGGCGGCAGCCUUCGGUGUCGCGAUAGCGCCAACGUUCUCAACUAUGACACGCAAAACGCGUGCUCCGUUGAAUGGAGUUUAUCAUG [C10A G84U]
GGAUCUUCUGGAUCUAACUAAAAAGACAAAUCUGCCACAAAGCUUAAGAGCAUCUUCGGAUGCAGAGGCGGCAGCCUUCGGUGGAGCGAUAGCGCCAACGUUCUUAACUAUGACACGCAAAACGCGUGCUCCGUUGAAUGGAGUUUAUCAUG [C10G A19U G46A C85A C105U]
